Experimental data published in patent US7238711.

Experiments:
[1] = target: CXCR4 (human) (UniProt P61073); assay: cell-based or functional assay
[2] = target: chemokine receptors on THP-1 cells; assay: biotinylated peptide on THP-1 cells, streptavidin-peroxidase, Scatchard; with and without 100 µM unlabeled peptide 3 (printed as affinity constant)
[3] = target: chemokine receptors on the surface of Jurkat cells; assay: biotinylated peptide at 100 µM on 10^6 Jurkat cells, streptavidin-peroxidase, TMB
[4] = target: chemokine receptors on THP-1 cells; assay: biotinylated peptide at 100 µM on 4×10^5 THP-1 cells, streptavidin-peroxidase, TMB
[5] = target: chemokine receptors on the surface of Jurkat cells; assay: biotinylated peptide on cells, streptavidin-peroxidase

CXCR4 (human), sequence (P61073 whole entry): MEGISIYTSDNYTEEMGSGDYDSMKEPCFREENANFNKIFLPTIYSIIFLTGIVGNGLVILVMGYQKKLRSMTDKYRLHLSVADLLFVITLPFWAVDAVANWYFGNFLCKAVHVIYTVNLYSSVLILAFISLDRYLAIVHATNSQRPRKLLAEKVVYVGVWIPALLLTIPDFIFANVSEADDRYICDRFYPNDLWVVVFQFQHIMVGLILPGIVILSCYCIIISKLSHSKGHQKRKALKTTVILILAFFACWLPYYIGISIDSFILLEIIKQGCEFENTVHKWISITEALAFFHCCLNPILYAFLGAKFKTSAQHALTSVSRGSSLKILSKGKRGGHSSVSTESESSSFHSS

Row | Substance | percentage inhibition of SDF1α induced THP-1 migration at 100 µM [1] [%] | Kd [2] [nM] | ΔA450 nm, alone [3] | ΔA450 nm, specific binding [3] | ΔA450 nm, alone [4] | ΔA450 nm, specific binding [4] | fold specific binding against THP-1 cells [5] [fold]
1 | KLK (peptide) | 87 | – | – | – | – | – | –
2 | N-terminal biotin-labeled peptide 2(1-15)[MCP-1] | – | 250 | – | – | – | – | –
3 | gp120:V3(BaL) (peptide) | – | – | 0.167 ΔA450 nm | < 0 ΔA450 nm | 0.642 ΔA450 nm | 0.535 ΔA450 nm | –
4 | gp120:V3(IIIb) (peptide) | – | – | 0.878 ΔA450 nm | 0.689 ΔA450 nm | 0.268 ΔA450 nm | 0.137 ΔA450 nm | 5
